# Experimental data taken from PMC6239434, “Angiopoietin-4-dependent venous maturation and fluid drainage in the peripheral retina” (eLife, 2018).
# B1: Purified recombinant human ANGPT4 (ligand, UniProt Q9Y264 25-503, looked up)
# chain: TRQEADRGCETLVVQHGHCSYTFLLPKSEPCPPGPEVSRDSNTLQRESLANPLHLGKLPTQQVKQLEQALQNNTQWLKKLERAIKTILRSKLEQVQQQMAQNQTAPMLELGTSLLNQTTAQIRKLTDMEAQLLNQTSRMDAQMPETFLSTNKLENQLLLQRQKLQQLQGQNSALEKRLQALETKQQEELASILSKKAKLLNTLSRQSAALTNIERGLRGVRHNSSLLQDQQHSLRQLLVLLRHLVQERANASAPAFIMAGEQVFQDCAEIQRSGASASGVYTIQVSNATKPRKVFCDLQSSGGRWTLIQRRENGTVNFQRNWKDYKQGFGDPAGEHWLGNEVVHQLTRRAAYSLRVELQDWEGHEAYAQYEHFHLGSENQLYRLSVVGYSGSAGRQSSLVLQNTSFSTLDSDNDHCLCKCAQVMSGGWWFDACGLSNLNGVYYHAPDNKYKMDGIRWHYFKGPSYSLRASRMMIRPLDI
# notes: human angiopoietin-4 (ANGPT4), purified recombinant protein from R & D Systems; Forms dimeric and higher oligomeric/multimeric complexes on non-reducing SDS-PAGE; also called angiopoietin-4; source: bought: R & D Systems (purified recombinant)
# B2: Purified recombinant mouse Angpt4 (ligand, UniProt Q9WVH6 22-509, looked up)
# chain: QHRGPEAGGHRQIHQVRRGQCSYTFVVPEPDICQLAPTAAPEALGGSNSLQRDLPASRLHLTDWRAQRAQRAQRVSQLEKILENNTQWLLKLEQSIKVNLRSHLVQAQQDTIQNQTTTMLALGANLMNQTKAQTHKLTAVEAQVLNQTLHMKTQMLENSLSTNKLERQMLMQSRELQRLQGRNRALETRLQALEAQHQAQLNSLQEKREQLHSLLGHQTGTLANLKHNLHALSSNSSSLQQQQQQLTEFVQRLVRIVAQDQHPVSLKTPKPVFQDCAEIKRSGVNTSGVYTIYETNMTKPLKVFCDMETDGGGWTLIQHREDGSVNFQRTWEEYKEGFGNVAREHWLGNEAVHRLTSRTAYLLRVELHDWEGRQTSIQYENFQLGSERQRYSLSVNDSSSSAGRKNSLAPQGTKFSTKDMDNDNCMCKCAQMLSGGWWFDACGLSNLNGIYYSVHQHLHKINGIRWHYFRGPSYSLHGTRMMLRPMGA
# notes: mouse angiopoietin-4 (Angpt4, previously named Ang3), purified recombinant protein from R & D Systems; also called angiopoietin-4; Ang3; source: bought: R & D Systems (purified recombinant)
# B3: Purified recombinant human ANGPT2 (ligand, UniProt O15123 19-496, looked up)
# chain: YNNFRKSMDSIGKKQYQVQHGSCSYTFLLPEMDNCRSSSSPYVSNAVQRDAPLEYDDSVQRLQVLENIMENNTQWLMKLENYIQDNMKKEMVEIQQNAVQNQTAVMIEIGTNLLNQTAEQTRKLTDVEAQVLNQTTRLELQLLEHSLSTNKLEKQILDQTSEINKLQDKNSFLEKKVLAMEDKHIIQLQSIKEEKDQLQVLVSKQNSIIEELEKKIVTATVNNSVLQKQQHDLMETVNNLLTMMSTSNSAKDPTVAKEEQISFRDCAEVFKSGHTTNGIYTLTFPNSTEEIKAYCDMEAGGGGWTIIQRREDGSVDFQRTWKEYKVGFGNPSGEYWLGNEFVSQLTNQQRYVLKIHLKDWEGNEAYSLYEHFYLSSEELNYRIHLKGLTGTAGKISSISQPGNDFSTKDGDNDKCICKCSQMLTGGWWFDACGPSNLNGMYYPQRQNTNKFNGIKWYYWKGSGYSLKATTMMIRPADF
# notes: human angiopoietin-2 (ANGPT2), purified recombinant protein from R & D Systems; Runs predominantly as disulfide-linked dimers on non-reducing SDS-PAGE; also called angiopoietin-2; source: bought: R & D Systems (purified recombinant)
# B4: Purified recombinant human ANGPT1 (ligand, UniProt Q15389 16-498, looked up)
# chain: HIGCSNQRRSPENSGRRYNRIQHGQCAYTFILPEHDGNCRESTTDQYNTNALQRDAPHVEPDFSSQKLQHLEHVMENYTQWLQKLENYIVENMKSEMAQIQQNAVQNHTATMLEIGTSLLSQTAEQTRKLTDVETQVLNQTSRLEIQLLENSLSTYKLEKQLLQQTNEILKIHEKNSLLEHKILEMEGKHKEELDTLKEEKENLQGLVTRQTYIIQELEKQLNRATTNNSVLQKQQLELMDTVHNLVNLCTKEGVLLKGGKREEEKPFRDCADVYQAGFNKSGIYTIYINNMPEPKKVFCNMDVNGGGWTVIQHREDGSLDFQRGWKEYKMGFGNPSGEYWLGNEFIFAITSQRQYMLRIELMDWEGNRAYSQYDRFHIGNEKQNYRLYLKGHTGTAGKQSSLILHGADFSTKDADNDNCMCKCALMLTGGWWFDACGPSNLNGMFYTAGQNHGKLNGIKWHYFKGPSYSLRSTTMMIRPLDF
# notes: human angiopoietin-1 (ANGPT1), purified recombinant protein from R & D Systems; Forms various-sized oligomers/multimers on non-reducing SDS-PAGE; also called angiopoietin-1; source: bought: R & D Systems (purified recombinant)
# What was measured:
# TIE2 (Homo sapiens) = TIE2 (Homo sapiens) (UniProt Q02763); conditions: cited from earlier work
# [1] = molecular target: the molecule itself; assay: non-reducing SDS polyacrylamide gel electrophoresis; purified recombinant angiopoietins run under non-reducing and reducing (1% 2-mercaptoethanol) conditions; oligomerization and multimerization states
# Chain of TIE2 (Homo sapiens) (Q02763 23-748): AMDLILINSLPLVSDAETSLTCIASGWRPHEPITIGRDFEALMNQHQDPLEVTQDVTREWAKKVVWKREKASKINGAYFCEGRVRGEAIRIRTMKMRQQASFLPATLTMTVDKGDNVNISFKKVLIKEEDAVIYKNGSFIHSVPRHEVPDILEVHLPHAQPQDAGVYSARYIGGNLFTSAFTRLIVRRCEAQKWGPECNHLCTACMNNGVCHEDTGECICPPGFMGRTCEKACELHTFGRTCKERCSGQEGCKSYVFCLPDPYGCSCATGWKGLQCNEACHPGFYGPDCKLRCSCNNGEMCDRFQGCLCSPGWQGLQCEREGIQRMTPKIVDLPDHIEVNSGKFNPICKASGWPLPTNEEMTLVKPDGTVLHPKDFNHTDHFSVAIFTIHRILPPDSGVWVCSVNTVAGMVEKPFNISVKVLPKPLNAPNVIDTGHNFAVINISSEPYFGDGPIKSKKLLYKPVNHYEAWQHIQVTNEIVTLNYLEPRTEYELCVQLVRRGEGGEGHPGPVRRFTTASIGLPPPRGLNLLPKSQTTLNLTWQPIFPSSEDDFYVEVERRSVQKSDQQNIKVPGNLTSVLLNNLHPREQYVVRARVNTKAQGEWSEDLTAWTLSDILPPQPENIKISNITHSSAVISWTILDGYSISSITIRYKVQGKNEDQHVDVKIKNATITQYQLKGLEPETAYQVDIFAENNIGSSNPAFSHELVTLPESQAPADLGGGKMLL
Molecule,binding result [1],other results
Angiopoietin-1 (from UniProt Q15389),,Kd (TIE2 (Homo sapiens)): 3.7 nM
B1,binds,
B2,binds,
B3,,stoichiometry N [1]: 2
B4,binds,
